How the values were obtained:
[1] = target: T1, PIP4K2C on the HuProt human proteome microarray (human, UniProt Q8TBX8 1-421); experiment: peptide or protein array; Cy3-tagged His-WDR73 incubated on the HuProt v4.0 20K Human Proteome Microarray (purified human proteins as N-terminal GST fusions) overnight at 4 °C, washed, scanned; candidates by Z-score > 3; settings: both partners purified
T1 construct: PIP4K2C, phospholipid kinase, human; spotted on the array as N-terminal GST fusion; source: bought: HuProt v4.0 20K Human Proteome Microarray (CDI Laboratories), purified human proteins; not shown: GST, N-terminal, kept
T1 sequence (looked up): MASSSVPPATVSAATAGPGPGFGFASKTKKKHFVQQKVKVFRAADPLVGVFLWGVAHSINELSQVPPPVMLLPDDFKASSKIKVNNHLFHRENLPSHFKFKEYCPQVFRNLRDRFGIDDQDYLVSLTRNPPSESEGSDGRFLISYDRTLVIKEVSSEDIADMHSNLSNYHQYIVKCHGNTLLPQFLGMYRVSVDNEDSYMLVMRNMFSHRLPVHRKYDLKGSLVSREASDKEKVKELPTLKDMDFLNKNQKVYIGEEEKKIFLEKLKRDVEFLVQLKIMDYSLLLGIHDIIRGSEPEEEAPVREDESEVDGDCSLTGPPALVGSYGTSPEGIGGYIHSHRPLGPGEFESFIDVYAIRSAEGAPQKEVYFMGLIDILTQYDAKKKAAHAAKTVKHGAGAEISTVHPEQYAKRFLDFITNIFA

[2] = target: T2, PIP4K2A on the HuProt human proteome microarray (human, UniProt P48426 1-406); experiment: as above; settings: both partners purified
T2 construct: PIP4K2A, human; spotted on the array as N-terminal GST fusion; source: bought: HuProt v4.0 20K Human Proteome Microarray (CDI Laboratories), purified human proteins; not shown: GST, N-terminal, kept
T2 sequence (looked up): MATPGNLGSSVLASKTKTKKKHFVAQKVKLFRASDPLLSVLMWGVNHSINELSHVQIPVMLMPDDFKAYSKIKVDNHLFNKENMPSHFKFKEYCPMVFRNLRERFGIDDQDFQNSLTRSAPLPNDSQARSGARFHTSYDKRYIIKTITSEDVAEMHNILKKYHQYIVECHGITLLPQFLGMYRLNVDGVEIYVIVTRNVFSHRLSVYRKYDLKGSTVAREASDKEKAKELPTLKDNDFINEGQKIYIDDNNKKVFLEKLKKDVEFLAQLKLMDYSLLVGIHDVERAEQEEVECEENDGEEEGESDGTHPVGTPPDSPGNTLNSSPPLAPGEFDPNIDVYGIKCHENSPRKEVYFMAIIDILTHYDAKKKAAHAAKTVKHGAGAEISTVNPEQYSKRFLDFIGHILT

B1: Cy3-tagged His-WDR73 (natural protein, human, UniProt Q6P4I2 1-378, looked up)
chain: MDPGDDWLVESLRLYQDFYAFDLSGATRVLEWIDDKGVFVAGYESLKKNEILHLKLPLRLSVKENKGLFPERDFKVRHGGFSDRSIFDLKHVPHTRLLVTSGLPGCYLQVWQVAEDSDVIKAVSTIAVHEKEESLWPRVAVFSTLAPGVLHGARLRSLQVVDLESRKTTYTSDVSDSEELSSLQVLDADTFAFCCASGRLGLVDTRQKWAPLENRSPGPGSGGERWCAEVGSWGQGPGPSIASLGSDGRLCLLDPRDLCHPVSSVQCPVSVPSPDPELLRVTWAPGLKNCLAISGFDGTVQVYDATSWDGTRSQDGTRSQVEPLFTHRGHIFLDGNGMDPAPLVTTHTWHPCRPRTLLSATNDASLHVWDWVDLCAPR
modifications: labeled with Cy3 (CyDye Protein Labelling CY3 MONO 5-PACK, GE)
notes: WDR73 (WD40-repeat-containing protein), human; Probe of the HuProt microarray; also called recombinant His-WDR73 fusion protein; purified human WDR73 protein; source: recombinant, purified by MerryBio Co., Ltd
[1]
  binding result: binds
[2]
  binding result: binds

From publication PMC9598763, “WDR73 Depletion Destabilizes PIP4K2C Activity and Impairs Focal Adhesion Formation in Galloway–Mowat Syndrome” (Biology, 2022)
